Experimental data published in publication PMC9974095, “TP63 gain-of-function mutations cause premature ovarian insufficiency by inducing oocyte apoptosis” (The Journal of Clinical Investigation, 2023).
Values joined by “and” are separate entries in the source; they are usually repeats but may differ in a detail not shown here. Identical values can stand only once.

Biological target: the molecule itself
Assay: native gel or EMSA; BN-PAGE (NativePAGE 3%-12% Bis-Tris) of lysates of transfected SAOS-2 cells treated with 10 uM MG132 for 12 h; blot with anti-p63

Protein	stoichiometry N
TAp63α p.R594* (domain or fragment, human, UniProt Q9H3D4-1 1-593, looked up, human TAp63α with the nonsense variant p.R594* (stop at codon 594, in the SAM domain; truncates the protein prior to the TID), numbered on NM_003722.5; Nonsense variant found in a patient with POI; lacks the TID; source: SAOS-2, transfected, MG132-treated, in lysate) MNFETSRCATLQYCPDPYIQRFVETPAHFSWKESYYRSTMSQSTQTNEFLSPEVFQHIWDFLEQPICSVQPIDLNFVDEPSEDGATNKIEISMDCIRMQDSDLSDPMWPQYTNLGLLNSMDQQIQNGSSSTSPYNTDHAQNSVTAPSPYAQPSSTFDALSPSPAIPSNTDYPGPHSFDVSFQQSSTAKSATWTYSTELKKLYCQIAKTCPIQIKVMTPPPQGAVIRAMPVYKKAEHVTEVVKRCPNHELSREFNEGQIAPPSHLIRVEGNSHAQYVEDPITGRQSVLVPYEPPQVGTEFTTVLYNFMCNSSCVGGMNRRPILIIVTLETRDGQVLGRRCFEARICACPGRDRKADEDSIRKQQVSDSTKNGDGTKRPFRQNTHGIQMTSIKKRRSPDDELLYLPVRGRETYEMLLKIKESLELMQYLPQHTIETYRQQQQQQHQHLLQKQTSIQSPSSYGNSSPPLNKMNSMNKLPSVSQLINPQQRNALTPTTIPDGMGANIPMMGTHMPMAGDMNGLSPTQALPPPLSMPSTSHCTPPPPYPTDCSIVSFLARLGCSSCLDYFTTQGLTTIYQIEHYSMDDLASLKIPEQF	4
mouse p63ΔTID (domain or fragment, UniProt O88898-1 1-609, looked up, mouse p63 (TAp63α) without the TID; the mouse allele of the same name carries c.1828_1829insGA (p.F610*, NM_001127259.1), a stop codon prior to the TID; also called mutant p63ΔTID) MNFETSRCATLQYCPDPYIQRFIETPAHFSWKESYYRSAMSQSTQTSEFLSPEVFQHIWDFLEQPICSVQPIELNFVDEPSENGATNKIEISMDCIRMQDSDLSDPMWPQYTNLGLLNSMDQQIQNGSSSTSPYNTDHAQNSVTAPSPYAQPSSTFDALSPSPAIPSNTDYPGPHSFDVSFQQSSTAKSATWTYSTELKKLYCQIAKTCPIQIKVMTPPPQGAVIRAMPVYKKAEHVTEVVKRCPNHELSREFNEGQIAPPSHLIRVEGNSHAQYVEDPITGRQSVLVPYEPPQVGTEFTTVLYNFMCNSSCVGGMNRRPILIIVTLETRDGQVLGRRCFEARICACPGRDRKADEDSIRKQQVSDSAKNGDGTKRPFRQNTHGIQMTSIKKRRSPDDELLYLPVRGRETYEMLLKIKESLELMQYLPQHTIETYRQQQQQQHQHLLQKQTSMQSQSSYGNSSPPLNKMNSMNKLPSVSQLINPQQRNALTPTTMPEGMGANIPMMGTHMPMAGDMNGLSPTQALPPPLSMPSTSHCTPPPPYPTDCSIVSFLARLGCSSCLDYFTTQGLTTIYQIEHYSMDDLASLKIPEQFRHAIWKGILDHRQLHD	4
TAp63α (human TP63), wild type (natural protein, UniProt Q9H3D4-1 1-680, looked up, human p63, isoform TAp63α; variants are numbered on NM_003722.5; also called WT TAp63α; source: SAOS-2, transfected (pcDNA3.1-TP63), MG132-treated, in lysate) MNFETSRCATLQYCPDPYIQRFVETPAHFSWKESYYRSTMSQSTQTNEFLSPEVFQHIWDFLEQPICSVQPIDLNFVDEPSEDGATNKIEISMDCIRMQDSDLSDPMWPQYTNLGLLNSMDQQIQNGSSSTSPYNTDHAQNSVTAPSPYAQPSSTFDALSPSPAIPSNTDYPGPHSFDVSFQQSSTAKSATWTYSTELKKLYCQIAKTCPIQIKVMTPPPQGAVIRAMPVYKKAEHVTEVVKRCPNHELSREFNEGQIAPPSHLIRVEGNSHAQYVEDPITGRQSVLVPYEPPQVGTEFTTVLYNFMCNSSCVGGMNRRPILIIVTLETRDGQVLGRRCFEARICACPGRDRKADEDSIRKQQVSDSTKNGDGTKRPFRQNTHGIQMTSIKKRRSPDDELLYLPVRGRETYEMLLKIKESLELMQYLPQHTIETYRQQQQQQHQHLLQKQTSIQSPSSYGNSSPPLNKMNSMNKLPSVSQLINPQQRNALTPTTIPDGMGANIPMMGTHMPMAGDMNGLSPTQALPPPLSMPSTSHCTPPPPYPTDCSIVSFLARLGCSSCLDYFTTQGLTTIYQIEHYSMDDLASLKIPEQFRHAIWKGILDHRQLHEFSSPSHLLRTPSSASTVSVGSSETRGERVIDAVRFTLRQTISFPPRDEWNDFNFDMDARRNKQQRIKEEGE	2
TAp63α p.R643Q (natural protein, human, UniProt Q9H3D4-1 1-680, looked up, Variant found in a patient with POI; source: SAOS-2, transfected, MG132-treated, in lysate) MNFETSRCATLQYCPDPYIQRFVETPAHFSWKESYYRSTMSQSTQTNEFLSPEVFQHIWDFLEQPICSVQPIDLNFVDEPSEDGATNKIEISMDCIRMQDSDLSDPMWPQYTNLGLLNSMDQQIQNGSSSTSPYNTDHAQNSVTAPSPYAQPSSTFDALSPSPAIPSNTDYPGPHSFDVSFQQSSTAKSATWTYSTELKKLYCQIAKTCPIQIKVMTPPPQGAVIRAMPVYKKAEHVTEVVKRCPNHELSREFNEGQIAPPSHLIRVEGNSHAQYVEDPITGRQSVLVPYEPPQVGTEFTTVLYNFMCNSSCVGGMNRRPILIIVTLETRDGQVLGRRCFEARICACPGRDRKADEDSIRKQQVSDSTKNGDGTKRPFRQNTHGIQMTSIKKRRSPDDELLYLPVRGRETYEMLLKIKESLELMQYLPQHTIETYRQQQQQQHQHLLQKQTSIQSPSSYGNSSPPLNKMNSMNKLPSVSQLINPQQRNALTPTTIPDGMGANIPMMGTHMPMAGDMNGLSPTQALPPPLSMPSTSHCTPPPPYPTDCSIVSFLARLGCSSCLDYFTTQGLTTIYQIEHYSMDDLASLKIPEQFRHAIWKGILDHRQLHEFSSPSHLLRTPSSASTVSVGSSETRGERVIDAVQFTLRQTISFPPRDEWNDFNFDMDARRNKQQRIKEEGE	4
TAp63α p.L646P (natural protein, human, UniProt Q9H3D4-1 1-680, looked up, Variant found in a patient with POI; source: SAOS-2, transfected, MG132-treated, in lysate) MNFETSRCATLQYCPDPYIQRFVETPAHFSWKESYYRSTMSQSTQTNEFLSPEVFQHIWDFLEQPICSVQPIDLNFVDEPSEDGATNKIEISMDCIRMQDSDLSDPMWPQYTNLGLLNSMDQQIQNGSSSTSPYNTDHAQNSVTAPSPYAQPSSTFDALSPSPAIPSNTDYPGPHSFDVSFQQSSTAKSATWTYSTELKKLYCQIAKTCPIQIKVMTPPPQGAVIRAMPVYKKAEHVTEVVKRCPNHELSREFNEGQIAPPSHLIRVEGNSHAQYVEDPITGRQSVLVPYEPPQVGTEFTTVLYNFMCNSSCVGGMNRRPILIIVTLETRDGQVLGRRCFEARICACPGRDRKADEDSIRKQQVSDSTKNGDGTKRPFRQNTHGIQMTSIKKRRSPDDELLYLPVRGRETYEMLLKIKESLELMQYLPQHTIETYRQQQQQQHQHLLQKQTSIQSPSSYGNSSPPLNKMNSMNKLPSVSQLINPQQRNALTPTTIPDGMGANIPMMGTHMPMAGDMNGLSPTQALPPPLSMPSTSHCTPPPPYPTDCSIVSFLARLGCSSCLDYFTTQGLTTIYQIEHYSMDDLASLKIPEQFRHAIWKGILDHRQLHEFSSPSHLLRTPSSASTVSVGSSETRGERVIDAVRFTPRQTISFPPRDEWNDFNFDMDARRNKQQRIKEEGE	4
TAp63α p.R655Q (natural protein, human, UniProt Q9H3D4-1 1-680, looked up, Variant found in a patient with POI; source: SAOS-2, transfected, MG132-treated, in lysate) MNFETSRCATLQYCPDPYIQRFVETPAHFSWKESYYRSTMSQSTQTNEFLSPEVFQHIWDFLEQPICSVQPIDLNFVDEPSEDGATNKIEISMDCIRMQDSDLSDPMWPQYTNLGLLNSMDQQIQNGSSSTSPYNTDHAQNSVTAPSPYAQPSSTFDALSPSPAIPSNTDYPGPHSFDVSFQQSSTAKSATWTYSTELKKLYCQIAKTCPIQIKVMTPPPQGAVIRAMPVYKKAEHVTEVVKRCPNHELSREFNEGQIAPPSHLIRVEGNSHAQYVEDPITGRQSVLVPYEPPQVGTEFTTVLYNFMCNSSCVGGMNRRPILIIVTLETRDGQVLGRRCFEARICACPGRDRKADEDSIRKQQVSDSTKNGDGTKRPFRQNTHGIQMTSIKKRRSPDDELLYLPVRGRETYEMLLKIKESLELMQYLPQHTIETYRQQQQQQHQHLLQKQTSIQSPSSYGNSSPPLNKMNSMNKLPSVSQLINPQQRNALTPTTIPDGMGANIPMMGTHMPMAGDMNGLSPTQALPPPLSMPSTSHCTPPPPYPTDCSIVSFLARLGCSSCLDYFTTQGLTTIYQIEHYSMDDLASLKIPEQFRHAIWKGILDHRQLHEFSSPSHLLRTPSSASTVSVGSSETRGERVIDAVRFTLRQTISFPPQDEWNDFNFDMDARRNKQQRIKEEGE	4 and 2
TAp63α p.S285N (natural protein, human, UniProt Q9H3D4-1 1-680, looked up, made from pcDNA3.1-TP63 by site-directed mutagenesis; Variant found in a patient with POI; source: SAOS-2, transfected, MG132-treated, in lysate) MNFETSRCATLQYCPDPYIQRFVETPAHFSWKESYYRSTMSQSTQTNEFLSPEVFQHIWDFLEQPICSVQPIDLNFVDEPSEDGATNKIEISMDCIRMQDSDLSDPMWPQYTNLGLLNSMDQQIQNGSSSTSPYNTDHAQNSVTAPSPYAQPSSTFDALSPSPAIPSNTDYPGPHSFDVSFQQSSTAKSATWTYSTELKKLYCQIAKTCPIQIKVMTPPPQGAVIRAMPVYKKAEHVTEVVKRCPNHELSREFNEGQIAPPSHLIRVEGNSHAQYVEDPITGRQNVLVPYEPPQVGTEFTTVLYNFMCNSSCVGGMNRRPILIIVTLETRDGQVLGRRCFEARICACPGRDRKADEDSIRKQQVSDSTKNGDGTKRPFRQNTHGIQMTSIKKRRSPDDELLYLPVRGRETYEMLLKIKESLELMQYLPQHTIETYRQQQQQQHQHLLQKQTSIQSPSSYGNSSPPLNKMNSMNKLPSVSQLINPQQRNALTPTTIPDGMGANIPMMGTHMPMAGDMNGLSPTQALPPPLSMPSTSHCTPPPPYPTDCSIVSFLARLGCSSCLDYFTTQGLTTIYQIEHYSMDDLASLKIPEQFRHAIWKGILDHRQLHEFSSPSHLLRTPSSASTVSVGSSETRGERVIDAVRFTLRQTISFPPRDEWNDFNFDMDARRNKQQRIKEEGE	2
TAp63α p.T538A (natural protein, human, UniProt Q9H3D4-1 1-680, looked up, human TAp63α with the patient variant p.T538A, numbered on NM_003722.5; made from pcDNA3.1-TP63 by site-directed mutagenesis; Variant found in a patient with POI; source: SAOS-2, transfected, MG132-treated, in lysate) MNFETSRCATLQYCPDPYIQRFVETPAHFSWKESYYRSTMSQSTQTNEFLSPEVFQHIWDFLEQPICSVQPIDLNFVDEPSEDGATNKIEISMDCIRMQDSDLSDPMWPQYTNLGLLNSMDQQIQNGSSSTSPYNTDHAQNSVTAPSPYAQPSSTFDALSPSPAIPSNTDYPGPHSFDVSFQQSSTAKSATWTYSTELKKLYCQIAKTCPIQIKVMTPPPQGAVIRAMPVYKKAEHVTEVVKRCPNHELSREFNEGQIAPPSHLIRVEGNSHAQYVEDPITGRQSVLVPYEPPQVGTEFTTVLYNFMCNSSCVGGMNRRPILIIVTLETRDGQVLGRRCFEARICACPGRDRKADEDSIRKQQVSDSTKNGDGTKRPFRQNTHGIQMTSIKKRRSPDDELLYLPVRGRETYEMLLKIKESLELMQYLPQHTIETYRQQQQQQHQHLLQKQTSIQSPSSYGNSSPPLNKMNSMNKLPSVSQLINPQQRNALTPTTIPDGMGANIPMMGTHMPMAGDMNGLSPTQALPPPLSMPSTSHCAPPPPYPTDCSIVSFLARLGCSSCLDYFTTQGLTTIYQIEHYSMDDLASLKIPEQFRHAIWKGILDHRQLHEFSSPSHLLRTPSSASTVSVGSSETRGERVIDAVRFTLRQTISFPPRDEWNDFNFDMDARRNKQQRIKEEGE	2
TAp63α p.T567I (natural protein, human, UniProt Q9H3D4-1 1-680, looked up, human TAp63α with the patient variant p.T567I (SAM domain), numbered on NM_003722.5; made from pcDNA3.1-TP63 by site-directed mutagenesis; Variant found in a patient with POI; source: SAOS-2, transfected, MG132-treated, in lysate) MNFETSRCATLQYCPDPYIQRFVETPAHFSWKESYYRSTMSQSTQTNEFLSPEVFQHIWDFLEQPICSVQPIDLNFVDEPSEDGATNKIEISMDCIRMQDSDLSDPMWPQYTNLGLLNSMDQQIQNGSSSTSPYNTDHAQNSVTAPSPYAQPSSTFDALSPSPAIPSNTDYPGPHSFDVSFQQSSTAKSATWTYSTELKKLYCQIAKTCPIQIKVMTPPPQGAVIRAMPVYKKAEHVTEVVKRCPNHELSREFNEGQIAPPSHLIRVEGNSHAQYVEDPITGRQSVLVPYEPPQVGTEFTTVLYNFMCNSSCVGGMNRRPILIIVTLETRDGQVLGRRCFEARICACPGRDRKADEDSIRKQQVSDSTKNGDGTKRPFRQNTHGIQMTSIKKRRSPDDELLYLPVRGRETYEMLLKIKESLELMQYLPQHTIETYRQQQQQQHQHLLQKQTSIQSPSSYGNSSPPLNKMNSMNKLPSVSQLINPQQRNALTPTTIPDGMGANIPMMGTHMPMAGDMNGLSPTQALPPPLSMPSTSHCTPPPPYPTDCSIVSFLARLGCSSCLDYFTIQGLTTIYQIEHYSMDDLASLKIPEQFRHAIWKGILDHRQLHEFSSPSHLLRTPSSASTVSVGSSETRGERVIDAVRFTLRQTISFPPRDEWNDFNFDMDARRNKQQRIKEEGE	2
